For one substance, stoichiometry N results are on record in PMC12316933.

As a reminder, the stoichiometry N is a count of units in the complex or per binding partner.

The target of this experiment is KS17 N2 NA (recombinant N2 neuraminidase head of H3N2 A/Kansas/14/2017) (Influenza A virus H3N2 A/Kansas/14/2017). The experiment in a line: cryo-EM structure.

In the case of “KS17 N2 NA (recombinant N2 neuraminidase head of H3N2 A/Kansas/14/2017) (enzyme)”, the stoichiometry N worked out at 4.
